Target: T1, recombinant activated factor VII (UniProt P08709 61-212; P08709 213-466)
T1 sequence (looked up) 1: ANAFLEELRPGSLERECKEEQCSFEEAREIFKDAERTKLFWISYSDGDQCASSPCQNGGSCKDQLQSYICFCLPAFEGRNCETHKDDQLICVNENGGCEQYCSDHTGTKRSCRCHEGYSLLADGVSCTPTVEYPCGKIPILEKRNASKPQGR
T1 sequence (looked up) 2: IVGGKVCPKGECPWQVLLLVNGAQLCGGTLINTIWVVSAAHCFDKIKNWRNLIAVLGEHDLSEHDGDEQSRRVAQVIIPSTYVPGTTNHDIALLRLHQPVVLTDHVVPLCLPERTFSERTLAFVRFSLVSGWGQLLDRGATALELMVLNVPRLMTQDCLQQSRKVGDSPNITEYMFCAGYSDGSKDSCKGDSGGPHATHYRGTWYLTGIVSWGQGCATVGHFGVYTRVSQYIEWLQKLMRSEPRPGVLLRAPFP
Assay: BLI

binding result: binds
B1: endothelial cell protein C receptor (receptor)
chain: SQDASDGLQRLHMLQISYFRDPYHVWYQGNASLGGHLTHVLEGPDTNTTIIQLQPLQEPESWARTQSGLQSYLLQFHGLVRLVHQERTLAFPLTIRCFLGCELPPEGSRAHVFFEVAVNGSSFVSFRPERALWQADTQVTSGVVTFTLQQLNAYNRTRYELREFLEDTCVQYVQKHISAENTKGSQTSRSYTS

Reference: publication PMC13195613 (Blood Advances, 2026)
